The results in this text go back to US20140087995A1 (published 2014).

What is called IC50 is the concentration that inhibits the measured activity by half.

Numbered stars: 1 amine (or outer) side, 2 acyl side, 3 side chain; on linkers, the order of the positions; unused ones are H or OH. Bridge positions count the residues as written; N and C are the ends. Side chains are listed from the residue outwards. Ends that are not written are not given here. * marks the point of attachment. C20 diacid = O=C(O)CCCCCCCCCCCCCCCCCCC(=O)*; γGlu = O=C(O)[C@H](CCC(=O)[*:2])N[*:1]

B1: N^ε1-[(4S)-4-carboxy-4-[[(4S)-4-carboxy-4-(19-carboxynonadecanoylamino)butanoyl]amino]butanoyl]-[Glu14,Arg17,Pro21,Pro27,His34]-h-amylin (peptide)
peptide: K([γGlu-γGlu-C20 diacid])CNTATCATQRLAEFLRHSSPNFGAIPSSTNVGHNTY-NH2
modifications: disulfide 2-7; N-terminus assumed
SMILES: CC[C@H](C)[C@H](NC(=O)[C@H](C)NC(=O)CNC(=O)[C@H](Cc1ccccc1)NC(=O)[C@H](CC(N)=O)NC(=O)[C@@H]1CCCN1C(=O)[C@H](CO)NC(=O)[C@H](CO)NC(=O)[C@H](Cc1c[nH]cn1)NC(=O)[C@H](CCCNC(=N)N)NC(=O)[C@H](CC(C)C)NC(=O)[C@H](Cc1ccccc1)NC(=O)[C@H](CCC(=O)O)NC(=O)[C@H](C)NC(=O)[C@H](CC(C)C)NC(=O)[C@H](CCCNC(=N)N)NC(=O)[C@H](CCC(N)=O)NC(=O)[C@@H](NC(=O)[C@H](C)NC(=O)[C@@H]1CSSC[C@H](NC(=O)[C@@H](N)CCCCNC(=O)CC[C@H](NC(=O)CC[C@H](NC(=O)CCCCCCCCCCCCCCCCCCC(=O)O)C(=O)O)C(=O)O)C(=O)N[C@@H](CC(N)=O)C(=O)N[C@@H]([C@@H](C)O)C(=O)N[C@@H](C)C(=O)N[C@@H]([C@@H](C)O)C(=O)N1)[C@@H](C)O)C(=O)N1CCC[C@H]1C(=O)N[C@@H](CO)C(=O)N[C@@H](CO)C(=O)N[C@H](C(=O)N[C@@H](CC(N)=O)C(=O)N[C@H](C(=O)NCC(=O)N[C@@H](Cc1c[nH]cn1)C(=O)N[C@@H](CC(N)=O)C(=O)N[C@H](C(=O)N[C@@H](Cc1ccc(O)cc1)C(N)=O)[C@@H](C)O)C(C)C)[C@@H](C)O
notes: also called compound 87
B2: N^ε1-[(4S)-4-carboxy-4-[[(4S)-4-carboxy-4-(19-carboxynonadecanoylamino)butanoyl]amino]butanoyl]-[His14,Arg17,Pro21,Pro27]-h-amylin (peptide)
peptide: K([γGlu-γGlu-C20 diacid])CNTATCATQRLAHFLRHSSPNFGAIPSSTNVGSNTY-NH2
modifications: disulfide 2-7; N-terminus assumed
SMILES: CC[C@H](C)[C@H](NC(=O)[C@H](C)NC(=O)CNC(=O)[C@H](Cc1ccccc1)NC(=O)[C@H](CC(N)=O)NC(=O)[C@@H]1CCCN1C(=O)[C@H](CO)NC(=O)[C@H](CO)NC(=O)[C@H](Cc1c[nH]cn1)NC(=O)[C@H](CCCNC(=N)N)NC(=O)[C@H](CC(C)C)NC(=O)[C@H](Cc1ccccc1)NC(=O)[C@H](Cc1c[nH]cn1)NC(=O)[C@H](C)NC(=O)[C@H](CC(C)C)NC(=O)[C@H](CCCNC(=N)N)NC(=O)[C@H](CCC(N)=O)NC(=O)[C@@H](NC(=O)[C@H](C)NC(=O)[C@@H]1CSSC[C@H](NC(=O)[C@@H](N)CCCCNC(=O)CC[C@H](NC(=O)CC[C@H](NC(=O)CCCCCCCCCCCCCCCCCCC(=O)O)C(=O)O)C(=O)O)C(=O)N[C@@H](CC(N)=O)C(=O)N[C@@H]([C@@H](C)O)C(=O)N[C@@H](C)C(=O)N[C@@H]([C@@H](C)O)C(=O)N1)[C@@H](C)O)C(=O)N1CCC[C@H]1C(=O)N[C@@H](CO)C(=O)N[C@@H](CO)C(=O)N[C@H](C(=O)N[C@@H](CC(N)=O)C(=O)N[C@H](C(=O)NCC(=O)N[C@@H](CO)C(=O)N[C@@H](CC(N)=O)C(=O)N[C@H](C(=O)N[C@@H](Cc1ccc(O)cc1)C(N)=O)[C@@H](C)O)C(C)C)[C@@H](C)O
notes: also called compound 92
B3: N^ε1-[(4S)-4-carboxy-4-[[(4S)-4-carboxy-4-(19-carboxynonadecanoylamino)butanoyl]amino]butanoyl]-[Glu14,Arg17,Pro21,Pro27,Pro34,Glu35]-h-amylin (peptide)
peptide: K([γGlu-γGlu-C20 diacid])CNTATCATQRLAEFLRHSSPNFGAIPSSTNVGPETY-NH2
modifications: disulfide 2-7; N-terminus assumed
SMILES: CC[C@H](C)[C@H](NC(=O)[C@H](C)NC(=O)CNC(=O)[C@H](Cc1ccccc1)NC(=O)[C@H](CC(N)=O)NC(=O)[C@@H]1CCCN1C(=O)[C@H](CO)NC(=O)[C@H](CO)NC(=O)[C@H](Cc1c[nH]cn1)NC(=O)[C@H](CCCNC(=N)N)NC(=O)[C@H](CC(C)C)NC(=O)[C@H](Cc1ccccc1)NC(=O)[C@H](CCC(=O)O)NC(=O)[C@H](C)NC(=O)[C@H](CC(C)C)NC(=O)[C@H](CCCNC(=N)N)NC(=O)[C@H](CCC(N)=O)NC(=O)[C@@H](NC(=O)[C@H](C)NC(=O)[C@@H]1CSSC[C@H](NC(=O)[C@@H](N)CCCCNC(=O)CC[C@H](NC(=O)CC[C@H](NC(=O)CCCCCCCCCCCCCCCCCCC(=O)O)C(=O)O)C(=O)O)C(=O)N[C@@H](CC(N)=O)C(=O)N[C@@H]([C@@H](C)O)C(=O)N[C@@H](C)C(=O)N[C@@H]([C@@H](C)O)C(=O)N1)[C@@H](C)O)C(=O)N1CCC[C@H]1C(=O)N[C@@H](CO)C(=O)N[C@@H](CO)C(=O)N[C@H](C(=O)N[C@@H](CC(N)=O)C(=O)N[C@H](C(=O)NCC(=O)N1CCC[C@H]1C(=O)N[C@@H](CCC(=O)O)C(=O)N[C@H](C(=O)N[C@@H](Cc1ccc(O)cc1)C(N)=O)[C@@H](C)O)C(C)C)[C@@H](C)O
B4: N^ε1-[(4S)-4-carboxy-4-[[(4S)-4-carboxy-4-(19-carboxynonadecanoylamino)butanoyl]amino]butanoyl]-[Glu14,Arg17,Pro21,Pro27,Pro34,Arg35]-h-amylin (peptide)
peptide: K([γGlu-γGlu-C20 diacid])CNTATCATQRLAEFLRHSSPNFGAIPSSTNVGPRTY-NH2
modifications: disulfide 2-7; N-terminus assumed
SMILES: CC[C@H](C)[C@H](NC(=O)[C@H](C)NC(=O)CNC(=O)[C@H](Cc1ccccc1)NC(=O)[C@H](CC(N)=O)NC(=O)[C@@H]1CCCN1C(=O)[C@H](CO)NC(=O)[C@H](CO)NC(=O)[C@H](Cc1c[nH]cn1)NC(=O)[C@H](CCCNC(=N)N)NC(=O)[C@H](CC(C)C)NC(=O)[C@H](Cc1ccccc1)NC(=O)[C@H](CCC(=O)O)NC(=O)[C@H](C)NC(=O)[C@H](CC(C)C)NC(=O)[C@H](CCCNC(=N)N)NC(=O)[C@H](CCC(N)=O)NC(=O)[C@@H](NC(=O)[C@H](C)NC(=O)[C@@H]1CSSC[C@H](NC(=O)[C@@H](N)CCCCNC(=O)CC[C@H](NC(=O)CC[C@H](NC(=O)CCCCCCCCCCCCCCCCCCC(=O)O)C(=O)O)C(=O)O)C(=O)N[C@@H](CC(N)=O)C(=O)N[C@@H]([C@@H](C)O)C(=O)N[C@@H](C)C(=O)N[C@@H]([C@@H](C)O)C(=O)N1)[C@@H](C)O)C(=O)N1CCC[C@H]1C(=O)N[C@@H](CO)C(=O)N[C@@H](CO)C(=O)N[C@H](C(=O)N[C@@H](CC(N)=O)C(=O)N[C@H](C(=O)NCC(=O)N1CCC[C@H]1C(=O)N[C@@H](CCCNC(=N)N)C(=O)N[C@H](C(=O)N[C@@H](Cc1ccc(O)cc1)C(N)=O)[C@@H](C)O)C(C)C)[C@@H](C)O
notes: also called compound 110
B5: N^ε1-[(4S)-4-carboxy-4-[[(4S)-4-carboxy-4-(19-carboxynonadecanoylamino)butanoyl]amino]butanoyl]-[Ser14,Arg17,Pro21,Pro27,Pro34,Glu35]-h-amylin (peptide)
peptide: K([γGlu-γGlu-C20 diacid])CNTATCATQRLASFLRHSSPNFGAIPSSTNVGPETY-NH2
modifications: disulfide 2-7; N-terminus assumed
SMILES: CC[C@H](C)[C@H](NC(=O)[C@H](C)NC(=O)CNC(=O)[C@H](Cc1ccccc1)NC(=O)[C@H](CC(N)=O)NC(=O)[C@@H]1CCCN1C(=O)[C@H](CO)NC(=O)[C@H](CO)NC(=O)[C@H](Cc1c[nH]cn1)NC(=O)[C@H](CCCNC(=N)N)NC(=O)[C@H](CC(C)C)NC(=O)[C@H](Cc1ccccc1)NC(=O)[C@H](CO)NC(=O)[C@H](C)NC(=O)[C@H](CC(C)C)NC(=O)[C@H](CCCNC(=N)N)NC(=O)[C@H](CCC(N)=O)NC(=O)[C@@H](NC(=O)[C@H](C)NC(=O)[C@@H]1CSSC[C@H](NC(=O)[C@@H](N)CCCCNC(=O)CC[C@H](NC(=O)CC[C@H](NC(=O)CCCCCCCCCCCCCCCCCCC(=O)O)C(=O)O)C(=O)O)C(=O)N[C@@H](CC(N)=O)C(=O)N[C@@H]([C@@H](C)O)C(=O)N[C@@H](C)C(=O)N[C@@H]([C@@H](C)O)C(=O)N1)[C@@H](C)O)C(=O)N1CCC[C@H]1C(=O)N[C@@H](CO)C(=O)N[C@@H](CO)C(=O)N[C@H](C(=O)N[C@@H](CC(N)=O)C(=O)N[C@H](C(=O)NCC(=O)N1CCC[C@H]1C(=O)N[C@@H](CCC(=O)O)C(=O)N[C@H](C(=O)N[C@@H](Cc1ccc(O)cc1)C(N)=O)[C@@H](C)O)C(C)C)[C@@H](C)O
notes: also called compound 120
B6: N^ε1-[(4S)-4-carboxy-4-[[(4S)-4-carboxy-4-(19-carboxynonadecanoylamino)butanoyl]amino]butanoyl]-[Glu14,Arg17,Pro21,Pro31,Pro34,Glu35]-h-amylin (peptide)
peptide: K([γGlu-γGlu-C20 diacid])CNTATCATQRLAEFLRHSSPNFGAILSSTPVGPETY-NH2
modifications: disulfide 2-7

The target in one assay is T1, human calcitonin receptor (human, UniProt P30988 25-474).
T1 construct: whole, on cells; also called hCTR; hCT
T1 sequence (looked up): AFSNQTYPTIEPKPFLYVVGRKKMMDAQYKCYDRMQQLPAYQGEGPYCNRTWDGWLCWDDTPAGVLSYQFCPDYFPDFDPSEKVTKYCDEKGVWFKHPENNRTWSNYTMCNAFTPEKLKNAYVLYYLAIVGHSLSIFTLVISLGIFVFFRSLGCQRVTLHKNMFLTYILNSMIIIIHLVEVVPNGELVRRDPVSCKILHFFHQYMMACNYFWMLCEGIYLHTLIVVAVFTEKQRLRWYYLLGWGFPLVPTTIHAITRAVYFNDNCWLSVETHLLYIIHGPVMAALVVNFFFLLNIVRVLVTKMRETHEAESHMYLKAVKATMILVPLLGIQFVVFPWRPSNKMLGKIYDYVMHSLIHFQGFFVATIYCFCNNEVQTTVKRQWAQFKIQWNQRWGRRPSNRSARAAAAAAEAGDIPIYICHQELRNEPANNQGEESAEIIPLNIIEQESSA
Briefly: SPA radioligand competition (125I-calcitonin), membranes of BHK cells with human calcitonin receptor. An outline of the steps: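 BHK hCTR membranes 35 ng/μL + SPA beads 0.05 mg/well; buffer 50 mM Hepes pH 7.4, 1 mM CaCl2, 5 mM MgCl₂, 0.1% OA, 0.02% Tween20. 120 min, 25° C., shaking. Scintillation count; IC50 by one-site binding competition.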
(In a radioligand displacement assay an active substance lowers the binding of a labelled ligand.)
With B1, the IC50 was found to be 22.5 nM.
In the case of B2, the IC50 is 26 nM.
As for B3, the IC50 stood at 2.13 nM.
On the same count and under the same terms, the same measure for B4: 17.5 nM; for B5: 3.44 nM.
Same read-out and setting: the figure for B6 is 1.56 nM.

In the next assay the target is T1, human calcitonin receptor. The assay can be described thus: ratio of IC50 at human calcitonin receptor to IC50 at human amylin receptor (SPA competition assays). Put shortly:
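IC₅₀ values were derived by one-site competition analysis of SPA counts. Cell membranes (35 ng/μL) with SPA beads were incubated with test compounds for 120 min at 25° C in Hepes buffer, pH 7.4, containing CaCl2, MgCl₂, OA and Tween20.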
As for B1, the “Ratio hCT/hAmylin binding” value amounted to 35.6.
The same measure, in the same setting: the figure for B2 is 145.
Still for that read-out and setting: the figure for B3 is 17.6; for B4 it is 53.6; for B5 it is 45.3.
Still for that read-out and setting: the figure for B6 is 22.6.
